In PMC10200060, “Inhibition of DAMP actions in the tumoral microenvironment using lactoferrin-glycyrrhizin conjugate for glioblastoma therapy” (Biomaterials Research, 2023):

T1: human recombinant HMGB1 protein (Homo sapiens, UniProt P09429)
T1 construct: purchased Abcam
T1 sequence (P09429 1-215): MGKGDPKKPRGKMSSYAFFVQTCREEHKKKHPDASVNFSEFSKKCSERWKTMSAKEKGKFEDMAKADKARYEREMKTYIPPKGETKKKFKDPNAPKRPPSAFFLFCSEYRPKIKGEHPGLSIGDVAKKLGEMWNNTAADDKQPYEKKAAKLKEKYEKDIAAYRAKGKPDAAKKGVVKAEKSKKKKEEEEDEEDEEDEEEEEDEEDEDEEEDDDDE

B1: lactoferrin (protein, UniProt P02788 20-710, looked up)
Lactotransferrin: GRRRSVQWCAVSQPEATKCFQWQRNMRKVRGPPVSCIKRDSPIQCIQAIAENRADAVTLDGGFIYEAGLAPYKLRPVAAEVYGTERQPRTHYYAVAVVKKGGSFQLNELQGLKSCHTGLRRTAGWNVPIGTLRPFLNWTGPPEPIEAAVARFFSASCVPGADKGQFPNLCRLCAGTGENKCAFSSQEPYFSYSGAFKCLRDGAGDVAFIRESTVFEDLSDEAERDEYELLCPDNTRKPVDKFKDCHLARVPSHAVVARSVNGKEDAIWNLLRQAQEKFGKDKSPKFQLFGSPSGQKDLLFKDSAIGFSRVPPRIDSGLYLGSGYFTAIQNLRKSEEEVAARRARVVWCAVGEQELRKCNQWSGLSEGSVTCSSASTTEDCIALVLKGEADAMSLDGGYVYTAGKCGLVPVLAENYKSQQSSDPDPNCVDRPVEGYLAVAVVRRSDTSLTWNSVKGKKSCHTAVDRTAGWNIPMGLLFNQTGSCKFDEYFSQSCAPGSDPRSNLCALCIGDEQGENKCVPNSNERYYGYTGAFRCLAENAGDVAFVKDVTVLQNTDGNNNEAWAKDLKLADFALLCLDGKRKPVTEARSCHLAMAPNHAVVSRMDKVERLKQVLLHQQAKFGRNGSDCPDKFCLFQSETKNLLFNDNTECLARLHGKTTYEKYLGPQYVAGITNLKKCSTSPLLEACEFLRK
B2: Lf-GL-FITC: FITC-tagged Lf-GL for cellular uptake studies (conjugate, UniProt P02788 20-710, looked up)
Lactotransferrin: B1 Lactotransferrin
modifications: FITC label; GL conjugate
notes: FITC-tagged Lf-GL for cellular uptake studies

How the values were obtained:
HMGB1 [1] = test: HMGB1 ELISA of U87MG culture medium; format: cell-based, human; details: 50 μM GL equivalent, 48 h (control 131.8 ± 11.4)
Experimental: U87MG cells were seeded in 100 mm-cell culture dishes (2.2 × 10^6 cells per dish) and treated with GL, Lf, or Lf-GL (50 × 10^–6 M GL equivalent concentration) for 48 h. After incubating, cells were collected using a cell scrapper and were centrifuged for 3 min at 150 × g. Supernatant was collected as cell culture medium, and pellets were washed with cold PBS twice and transferred into a microcentrifuge tube. Tubes were centrifuged, and then pellets were resuspended in 500 μL 1X hypotonic buffer and incubated on ice. Then, 25 μL of NP40 was added and the mixture was agitated using a vortex mixer at the highest setting. Homogenates were centrifuged for 10 min at 842 × g at 4℃. Supernatant was collected as the cytoplasmic fraction, and pellets were resuspended in cell extraction buffer (50 μL) and were incubated for 30 min on ice with vortexing at 10 min intervals. Then, homogenates were centrifuged for 30 min at 14,000 × g at 4℃. Supernatant was collected as the nuclear fraction. The amount of HMGB1 in the samples was measured using a HMGB1 ELISA kit (Abbkine), and absorbance was measured at 450 nm in a micro-plate reader. A DNA assay (Quant-iT™ dsDNA Assay Kit, Invitrogen) was also conducted to express HMGB1 concentrations in equivalent amounts of DNA.

[2] = tested on: orthotopic GBM (U87MG) mice model; test: Survival in orthotopic GBM mouse model; format: in vivo, Balb/c nude mice; details: i.v. GL equivalent 50 mg kg^−1 (Lf 5 mg kg^−1)
Experimental: To establish the orthotopic GBM mice model, GBM cells (U87MG, inoculation density: 1.0 × 10^6 cells per 10 μL) were stereotactically injected into the right striatum of Balb/c nude mice. Then, mice were randomly divided into four groups (n = 5): control, GL, Lf, and Lf-GL treated group. […] After four weeks, mice were sacrificed, and organs were harvested and fixed with 4% paraformaldehyde for further analysis.

[3] = biological target: T1, human recombinant HMGB1 protein; test: SPR binding affinity against HMGB1; details: SPR, HMGB1 immobilized
Experimental: To confirm the binding affinity of Lf-GL to HMGB1, Surface Plasmon Resonance (SPR) was conducted at WoojungBSC (Korea). The Reichert SR7500DC system (Reichert technologies, NA, USA) and Scrubber2 software (Biologic software, FRA) were used, and a CMDH chip (Cat #: 13,206,066, Reichert technologies) was used for immobilization of the human recombinant HMGB1 protein (Abcam). HMGB1 protein was used as a ligand, and the analytes were HMGB1 antibody (Abcam), GL, Lf and Lf-GL conjugate. The immobilization buffer was S.A. (10 × 10^–3 M, pH 4.5), and the running buffer was PBS (pH 7.4). The flow rate of the analyte was 30 μL min^−1. The association and dissociation time were 3 min each, and measurements were conducted at room temperature. Results are expressed in response units (RU) over time.
Fig. S5. Binding affinity against HMGB1. Surface Plasmon Resonance (SPR) was conducted at WoojungBSC (Korea). The Reichert SR7500DC system (Reichert technologies, NA, USA) and Scrubber2 software(Biologic software, FRA) were used and the CMDH chip (Cat #: 13206066, Reichert technologies) was used for immobilization of the human recombinant HMGB1 protein (Abcam). HMGB1 protein was used as ligand and analytes were HMGB1 antibody (Abcam), GL, Lf and Lf-GL conjugate. Immobilization buffer was 10 mM S.A. (pH 4.5) and running buffer was 1× PBS. The flow rate of the analyte was 30 μL min^-1. The association and dissociation time were 3 min each and conducted at room temperature. Results are expressed in response units (RU) over time.

[4] = tested on: orthotopic GBM (U87MG) mice model; test: Nissl staining: GBM/normal brain ratio; format: in vivo, Balb/c nude mice; details: daily i.v. GL equivalent 50 mg kg^−1, 14 days (control 37.5 ± 2.3)
Source text: (§1) After two weeks, mice were sacrificed, and the brains were harvested and fixed with paraformaldehyde (4%). Then, tissue processing was automatically conducted using a Leica TP1020 semi-enclosed Benchtop Tissue Processor (Leica Biosystems, Wetzlar, Hesse, Germany), followed by embedding in paraffin blocks. Paraffin blocks were sliced into 5 μm thick slices using a Leica RM2145 Microtome (Leica Biosystems). Nissl staining was used to stain brain tissue slides with pre-warmed 0.1% Cresyl Violet Stain Solution (Abcam). TUNEL assays were conducted following the manufacturer’s instructions. For immunofluorescence staining; anti-HMGB1 antibody (Abcam), anti-Ki67 antibody (Abcam), anti-CD31 antibody (Abcam), and anti-VEGF antibody (Abcam) were used as primary antibodies, and goat anti-rabbit IgG-H&L Alexa Fluor 488 and goat anti-rabbit IgG H&L Alexa Fluor 647 were used as secondary antibodies, followed by DAPI mounting.

HUVEC = HUVEC co-cultured with U87MG: CCK-8 at basal chamber; format: cell-based, human; details: HUVEC/U87MG Transwell co-culture, 100 μM GL equivalent, 24 h
Experimental: (§2) To evaluate the inhibitory effect of Lf-GL on neovascularization in the tumor microenvironment in vitro, U87MG cells were seeded in the Transwell® insert chambers that were 6.5 mm in diameter and had 0.4 μm pore sizes (seeding density: 2.5 × 10^4 cells per well, Corning). HUVECs were seeded in the Transwell basal chamber (seeding density: 5.0 × 10^4 cells per well). GL, Lf, or Lf-GL (100 × 10^–6 M of GL equivalent concentration) were added to the insert chamber, and cells were incubated for 24 h. CCK-8 assay and HMGB1 ELISA were conducted at the basal chamber.

CD31 = test: Immunofluorescence staining of CD31 in GBM tissue; format: in vivo, Balb/c nude mice; details: GBM mice, daily i.v., 14 days (control MFI 14.7 ± 1.4)
Source text: as §1

HMGB1 [5] = test: Immunofluorescence staining of HMGB1 in GBM tissue; format: in vivo, Balb/c nude mice; details: GBM mice, daily i.v. GL equivalent 50 mg kg^−1, 14 days (control 15.3 ± 1.7)
Source text: as §1

[6] = tested on: orthotopic GBM (U87MG) mice model; test: TUNEL assay of GBM tissue; format: in vivo, Balb/c nude mice; details: daily i.v., 14 days (control 28.5 ± 4.8)
Source text: as §1

[7] = tested on: U87MG human glioma cell line; test: Cell viability test (CCK-8) in U87MG; format: cell-based; details: 50 μM GL equivalent, after 48 h treatment
Experimental: Cell viability was determined using a cell counting kit-8 (CCK-8). U87MG and HUVECs (seeding density: 0.75 × 10^4 cells per well) in 96-well culture plates were treated with GL, Lf, or Lf-GL (25 to 200 × 10^–6 M of GL equivalent concentration) and were incubated for different periods of time (24, 48, and 72 h). After washing with PBS, they were treated with a cell culture medium containing a CCK-8 assay kit (Abbkine) and were incubated at 37 °C and 5% CO2 for 2 h. Then, absorbance was measured at 450 nm in a micro-plate reader (VLBL00D0, Thermo Fisher Scientific). Results were quantified using Sigma Plot (Systat Software, USA). To determine the effect of extracellular HMGB1 in GBM and endothelial cell proliferation, U87MG and HUVECs were seeded in 96-well culture plates (seeding density: 0.75 × 10^4 cells per well) and GL, Lf, or Lf-GL (50 × 10^–6 M GL equivalent concentration) were added to cells with or without HMGB1 protein (U87MG: 0.1 μg mL^−1, and HUVEC: 1 μg mL^−1). Cells were incubated for different periods of time (24, 48, and 72 h).

HMGB1 [8] = test: HUVEC co-cultured with U87MG: HMGB1 ELISA; format: cell-based, human; details: HUVEC/U87MG co-culture, 100 μM GL equivalent, 24 h (control 217.8 ± 5.9)
Experimental: as §2

U87MG cells = test: Cellular uptake of FITC-tagged Lf-GL (flow cytometry); format: cell-based, human; details: 2 h incubation, Lf pre-treatment 500 nM
Experimental: To verify cellular uptake of Lf-GL, U87MG cells (seeding density: 2.5 × 10^4 cells per well) in an 8 well Nunc™ Lab-Tek II chambered coverglass (Thermo Scientific) were treated with FITC-tagged Lf-GL (1 × 10^–6 M) for different time periods (0 to 18 h). After washing with PBS, cells were treated with lysotracker (75 × 10^–9 M) and incubated for 2 h. Then, cells were fixed with 4% paraformaldehyde followed by DAPI mounting. Confocal laser scanning microscopy (SP8 X, Leica, Germany) was used to observe intracellular fluorescence, and images were processed using LAS X software (Leica).
Fig. S11. Significant cellular uptake of Lf-GL in U87MG. (a) Flow cytometry to evaluate cellular uptake of FITC tagged-Lf-GL (1 µM) in U87MG for 2,6, and 18 h. The 2 h pre-treatment of Lf and Pitstop® were treated in the concentration of 500 nM and 75 nM, respectively. (b) Quantification of cellular uptake for 18 h. Data were expressed as mean ± S.E.M (n=2).

Row | Molecule | HMGB1 released into the medium of U87MG cells (HMGB1 [1]) [ng/mL] | Mice survived up to 28 days [2] [%] | Additional days of survival versus PBS control ([2]; 28 days) [days] | KD, equilibrium dissociation constant (KD = Kd Ka^−1) [3] [nM] | Ka, association rate constant ([3]; PBS pH 7.4, room temperature) | GBM/normal brain ratio [4] | Reduction of endothelial cell proliferation (HUVEC) [%] | Decrease of MFI of CD31 (CD31) [fold] | Mean fluorescence intensity (MFI) of HMGB1 (HMGB1 [5]) | TUNEL MFI [6] | Number of cells, % of the original count [7] [%] | HMGB1 level in medium (HMGB1 [8]) [ng/mL] | Decrease of cellular internalization in the presence of Lf (U87MG cells)
1 | B1 | 114 ± 3.4 | 25 | 5 | 165 ± 3 | (8.1±0.1)·10^4 M^-1s^-1 | 29.7 ± 3.3 | 8.2 ± 2.9 | ~2 | 7.9 ± 1.4 | 9.4 ± 1.6 | 69.6 ± 5.7 | 177.3 ± 3.6 | 
2 | B2 |  |  |  |  |  |  |  |  |  |  |  |  | about 17%
